Test results as given in PMC8457657.

Target: pseudotyped SARS-CoV-2 (spike on lentivirus), active (SARS-CoV-2) (UniProt P0DTC2)
Test: ELONA
Conditions: pH 7.2, pH 7.4, room temperature ([…], MST 10 min)

Q: How did the Kd turn out when “CCCGACCAGCCACCATCAGCAACTCTTCCGCGTCCATCCCTGCTG [SARS2-AR10]” was run?
A: The Kd was 0.079 µM.
